{"source": "the DeepSol protein solubility set", "data": [{"experiment": "soluble on expression in E. coli; label from the status in PepcDB or PDB records", "values": [{"sequence": "MGSDKIHHHHHHMKPSRFNLVINESDGTLLFNTLSQALLWIDRKNTNKVLKTLEDPSSTELSKTEVEKLKRGMFLLDDNFDELEFLKFRFNTYRYSDRFLRYTIVLTHSCNFDCVYCYQKVLHISSGSYISEKVQSNFLLDVERKLEYQKPNLLSVTFYGGEPLLLEETVVNLSSKLKRLCEKYGVKYDSFIVTNGYLLTEKMVDDLQKAGIKALDITLDGTEVYHDRYRKARNGAPTFSSIFENIFRAVNKGLFVQIRVNVSRENIEDVKKLIDRIAEKKLRVEFNFQPIEIVEGNPTGFQDTALNTEEFAEIETKLWWYIREKIPEYPFEYFKKPRFARCDAMCKNSFVVDVDGRVYKCWGELGMENCSGFLKETGVEFTGSYLKWLTYDPLEDEECRRCLVLPFCMGGCAFNRVVYRTLKSSKVKKPHTCIPLRYNLNEFIKIVADYKRRSAVHGISQRSSGG", "soluble on expression in E. coli": "not soluble"}, {"sequence": "MGSDKIHHHHHHMSWNSFGNFMSARSSALAEFGNMVANLVSAKNEKDISKRNEYYKQAGYSALLAFGNLASNIAPGSTSSHIVNGTNASVIASRLSGNISSAIQEHKDGKVNINRFQNILADLYSLGGLGSTLIEKNGNMQSWGIPLAIAGDIIAATAIATGDTGTISTEEFYNFDNWKGFGYELFEDWSRWVYDWLPDGWNLWKELDRNRCWILTERDGRRQFKWLGKPDPTRGWFDNGHECLKPWGNIFDSYRRGKYHVYDPLALDLDGDGIETVATKGFSGALFDHRNQGIRTATGWVSADDGLLVRDLNGNGIIDNGAELFGDNTKLADGSFAKHGYAALAELDSNGDNIINAADAAF", "soluble on expression in E. coli": "not soluble"}, {"sequence": "MGSDKIHHHHHHMLKIGLLWHSTTSDNLGVGALTEAQISIINKAAVQAGVEVEYRIFGTNGNKDYFEGNPLIERGTNVSLKRILIGASDYPKKIRECDVVFDIGEGDSFADIYGFSRFLIQIVSKLVVLFQRKPLILSPQTIGPFESRFNLKVANNVMQRCTKIFVRDGLSFGYLQKNNLSVNAEEVIDVAFRLPFQRPSRDSSKVKIGLNVSGLLYNGGYTGKNQFGLSVNYPELTRSLLDQFTRIEGCEVWLVPHVLTTSFPIEDDVNVCVQLQELYPAAKLAPSFSSPSQAKSFISGMDFFLGARMHACIAAFSSGVPVVPLAYSRKFNGLFSALDYPYLGDCKVNTNEQIVGLVMDCFNSREQLKFAVEEGNKIAEKKLLRYEQYIAELLTRISNKKIVL", "soluble on expression in E. coli": "not soluble"}, {"sequence": "MAHHHHHHMQRDADRMKRKKEEHRDEEEFGAFRFADGSMYEGKFCRRESNADGTAKSQFPSAHPPTTRNAQQQELPPPIPFHHGKGVFKDAGGLVYDGCWVEGDMTGEGLLRFPSGATYEGSMYANSFWGTGTYTWPDGSRYEGQWENNKMHGKGTYIDAKGKRWAGKFHHGQGVGLLAEVSL", "soluble on expression in E. coli": "soluble"}, {"sequence": "MGSDKIHHHHHHMSNVTAEQKKEVKGRGFLPSRDGEHFAARIITVNGVINASQAKKIAEAAEKFGNGQLAFTTRLTVELPGVKFEDIEALSEFIASENLITGGTGSRVRPVVACKGTVCVHGLADTQALAAEIHEEFYKNWYDVKLPHKFKIGVGGCPNNCIKPDLNDLGIVGQRVPDYDSELCVGCKKCAVVEVCPVKAAKLTDKGKLEIDSNLCNNCGKCIESCNFDSIEEKESGYKVYIGGKWGKSVRPGTQIDRLFSKEELMTLIEKAILLFREQGNTGERFGITIDRIGADKFIEMLLSDEVLERKEEILEALLHLTGGAVC", "soluble on expression in E. coli": "not soluble"}, {"sequence": "MCRLAILALFSVAMVSVYGQDTPPPFLRNATPDQLKSFQQMIQSNGHLTETAMGAKIQEWVDQQGGKVAADWKDFQEFIKGQQGKSEAAHQTAISSFSPEAKKADAELTAISNDASLSIKAKGDKIQAYLTTLPANVKAELEKAQGQ", "soluble on expression in E. coli": "not soluble"}, {"sequence": "MSLTTIIFDNGGHNMKIGTIDSESPRLVPNSIVKAKHEKKRVFVAHEQEECSDKFSLFYVRPIERGYVVNWDTQQQIWEKTFGSMDVEASTSRIALTDNNYLIPALPDVSSEILFDYFGFTEVHKTSASTLVAKHSNKINNEKCAVVVDSGFSWTTVASFVNGMLIQDSVIRIDVGGKALTNKLKDWVSYRQLNVSEETYVINECKEDLCFVSQNFDESMKEARNRFQENTTMKRYIMPDFHSTFRGVVKDVKEPHDPQIPSIHLGVERFAIPEILFNPSDIDIDQCGVAEAVIESICQCPEALRPALAENIIVIGGSSCFPGFRERLEREVRSMLPAEYGLNVSNDVINPQTHSWHCGQELLTASKVPWINRKDWDERGDSLEFSNFFQTLVQSDELKGTRNFDDQREKSPKEDEDF", "soluble on expression in E. coli": "not soluble"}]}]}
